Experimental data from patent US20090317363A1.

B1: RANTES derivative: signature sequence SEQ ID NO: 60 fused to positions 10-68 of native RANTES (SEQ ID NO: 1) (ligand)
chain: QGPPLQWMQACCFAYIARPLPRAHIKEYFYTSGKCSNPAVVFVTRKNRQVCANPEKKWVREYINSLEMS
B2: RANTES derivative: signature sequence SEQ ID NO: 12 fused to positions 10-68 of native RANTES (SEQ ID NO: 1) (ligand)
chain: QGPPLMWLGGCCFAYIARPLPRAHIKEYFYTSGKCSNPAVVFVTRKNRQVCANPEKKWVREYINSLEMS
B3: RANTES derivative: signature sequence SEQ ID NO: 14 fused to positions 10-68 of native RANTES (SEQ ID NO: 1) (ligand)
chain: QGPLLMWLQVCCFAYIARPLPRAHIKEYFYTSGKCSNPAVVFVTRKNRQVCANPEKKWVREYINSLEMS
B4: RANTES derivative: signature sequence SEQ ID NO: 18 fused to positions 10-68 of native RANTES (SEQ ID NO: 1) (ligand)
chain: QGPPGSYDYSCCFAYIARPLPRAHIKEYFYTSGKCSNPAVVFVTRKNRQVCANPEKKWVREYINSLEMS
B5: RANTES derivative: signature sequence SEQ ID NO: 7 fused to positions 10-68 of native RANTES (SEQ ID NO: 1) (ligand)
chain: QGPPLMWTQVCCFAYIARPLPRAHIKEYFYTSGKCSNPAVVFVTRKNRQVCANPEKKWVREYINSLEMS
B6: RANTES derivative: signature sequence SEQ ID NO: 62 fused to positions 10-68 of native RANTES (SEQ ID NO: 1) (ligand)
chain: QGPPLMSTQVCCFAYIARPLPRAHIKEYFYTSGKCSNPAVVFVTRKNRQVCANPEKKWVREYINSLEMS
B7: RANTES derivative: signature sequence SEQ ID NO: 11 fused to positions 10-68 of native RANTES (SEQ ID NO: 1) (ligand)
chain: QGPPLMALQVCCFAYIARPLPRAHIKEYFYTSGKCSNPAVVFVTRKNRQVCANPEKKWVREYINSLEMS
B8: RANTES derivative: signature sequence SEQ ID NO: 69 fused to positions 10-68 of native RANTES (SEQ ID NO: 1) (ligand)
chain: QGPPLMSGQVCCFAYIARPLPRAHIKEYFYTSGKCSNPAVVFVTRKNRQVCANPEKKWVREYINSLEMS
B9: RANTES derivative: signature sequence SEQ ID NO: 13 fused to positions 10-68 of native RANTES (SEQ ID NO: 1) (ligand)
chain: QGPPLMWRGSCCFAYIARPLPRAHIKEYFYTSGKCSNPAVVFVTRKNRQVCANPEKKWVREYINSLEMS
B10: RANTES derivative: signature sequence SEQ ID NO: 65 fused to positions 10-68 of native RANTES (SEQ ID NO: 1) (ligand)
chain: QGPPLMSLQACCFAYIARPLPRAHIKEYFYTSGKCSNPAVVFVTRKNRQVCANPEKKWVREYINSLEMS
B11: RANTES derivative: signature sequence SEQ ID NO: 17 fused to positions 10-68 of native RANTES (SEQ ID NO: 1) (ligand)
chain: QGPPGDIVLACCFAYIARPLPRAHIKEYFYTSGKCSNPAVVFVTRKNRQVCANPEKKWVREYINSLEMS
B12: RANTES derivative: signature sequence SEQ ID NO: 8 fused to positions 10-68 of native RANTES (SEQ ID NO: 1) (ligand)
chain: QGPPLMWMQSCCFAYIARPLPRAHIKEYFYTSGKCSNPAVVFVTRKNRQVCANPEKKWVREYINSLEMS
B13: RANTES derivative: signature sequence SEQ ID NO: 15 fused to positions 10-68 of native RANTES (SEQ ID NO: 1) (ligand)
chain: QGPPLMQTTPCCFAYIARPLPRAHIKEYFYTSGKCSNPAVVFVTRKNRQVCANPEKKWVREYINSLEMS
B14: RANTES derivative: signature sequence SEQ ID NO: 68 fused to positions 10-68 of native RANTES (SEQ ID NO: 1) (ligand)
chain: QGPPLMSGQSCCFAYIARPLPRAHIKEYFYTSGKCSNPAVVFVTRKNRQVCANPEKKWVREYINSLEMS
B15: RANTES derivative: signature sequence SEQ ID NO: 20 fused to positions 10-68 of native RANTES (SEQ ID NO: 1) (ligand)
chain: QGPLSGQSTPCCFAYIARPLPRAHIKEYFYTSGKCSNPAVVFVTRKNRQVCANPEKKWVREYINSLEMS
B16: RANTES derivative: signature sequence SEQ ID NO: 67 fused to positions 10-68 of native RANTES (SEQ ID NO: 1) (ligand)
chain: QGPPLMSAQSCCFAYIARPLPRAHIKEYFYTSGKCSNPAVVFVTRKNRQVCANPEKKWVREYINSLEMS
B17: RANTES derivative: signature sequence SEQ ID NO: 66 fused to positions 10-68 of native RANTES (SEQ ID NO: 1) (ligand)
chain: QGPPLMSVQSCCFAYIARPLPRAHIKEYFYTSGKCSNPAVVFVTRKNRQVCANPEKKWVREYINSLEMS
B18: RANTES derivative: signature sequence SEQ ID NO: 23 fused to positions 10-68 of native RANTES (SEQ ID NO: 1) (ligand)
chain: QGPPLMSTQSCCFAYIARPLPRAHIKEYFYTSGKCSNPAVVFVTRKNRQVCANPEKKWVREYINSLEMS
B19: RANTES derivative: signature sequence SEQ ID NO: 63 fused to positions 10-68 of native RANTES (SEQ ID NO: 1) (ligand)
chain: QGPPLMSLSVCCFAYIARPLPRAHIKEYFYTSGKCSNPAVVFVTRKNRQVCANPEKKWVREYINSLEMS
B20: RANTES derivative: signature sequence SEQ ID NO: 22 fused to positions 10-68 of native RANTES (SEQ ID NO: 1) (ligand)
chain: QGPPLMSFQSCCFAYIARPLPRAHIKEYFYTSGKCSNPAVVFVTRKNRQVCANPEKKWVREYINSLEMS
B21: RANTES derivative: signature sequence SEQ ID NO: 19 fused to positions 10-68 of native RANTES (SEQ ID NO: 1) (ligand)
chain: QGPPGDGGSVCCFAYIARPLPRAHIKEYFYTSGKCSNPAVVFVTRKNRQVCANPEKKWVREYINSLEMS
B22: RANTES derivative: signature sequence SEQ ID NO: 21 fused to positions 10-68 of native RANTES (SEQ ID NO: 1) (ligand)
chain: QGPPGDWLQVCCFAYIARPLPRAHIKEYFYTSGKCSNPAVVFVTRKNRQVCANPEKKWVREYINSLEMS
B23: RANTES derivative: signature sequence SEQ ID NO: 3 fused to positions 10-68 of native RANTES (SEQ ID NO: 1) (ligand)
chain: QGPPLMWMQVCCFAYIARPLPRAHIKEYFYTSGKCSNPAVVFVTRKNRQVCANPEKKWVREYINSLEMS
B24: RANTES derivative: signature sequence SEQ ID NO: 16 fused to positions 10-68 of native RANTES (SEQ ID NO: 1) (ligand)
chain: QGPPGDTVLWCCFAYIARPLPRAHIKEYFYTSGKCSNPAVVFVTRKNRQVCANPEKKWVREYINSLEMS
B25: RANTES derivative: signature sequence SEQ ID NO: 61 fused to positions 10-68 of native RANTES (SEQ ID NO: 1) (ligand)
chain: QGPPLQWMQVCCFAYIARPLPRAHIKEYFYTSGKCSNPAVVFVTRKNRQVCANPEKKWVREYINSLEMS
B26: RANTES derivative: signature sequence SEQ ID NO: 10 fused to positions 10-68 of native RANTES (SEQ ID NO: 1) (ligand)
chain: QGPPLMWLQSCCFAYIARPLPRAHIKEYFYTSGKCSNPAVVFVTRKNRQVCANPEKKWVREYINSLEMS
B27: RANTES derivative: signature sequence SEQ ID NO: 64 fused to positions 10-68 of native RANTES (SEQ ID NO: 1) (ligand)
chain: QGPPLMSLQSCCFAYIARPLPRAHIKEYFYTSGKCSNPAVVFVTRKNRQVCANPEKKWVREYINSLEMS

Target: CCR5 (UniProt P51681)
Assay: cell-based or functional assay

Row | Binder | CCR5 sequestration (%) (% of control surface CCR5) | CCR5 signalling (%) (% of Emax of PSC-RANTES) | anti-HIV potency (IC50, nM) by cell fusion assay [nM] | anti-HIV potency (IC50, nM) by viral replication assay [nM]
1 | B1 | 8 | 11.8 | 0.02 | –
2 | B2 | 4 | 4.1 | 0.03 | 0.204
3 | B3 | 8 | 1.4 | 0.13 | –
4 | B4 | 69 | 90.1 | 0.08 | –
5 | B5 | 10 | 0.7 | 0.02 | 0.179
6 | B6 | 45 | 29.6 | 0.03 | –
7 | B7 | 9 | 1.6 | 0.03 | –
8 | B8 | 38 | 20.1 | 0.22 | –
9 | B9 | 9 | < 5 | 0.07 | –
10 | B10 | 30 | 11.5 | 0.04 | –
11 | B11 | 70 | 87.7 | 0.02 | 129
12 | B12 | 0 | 2.5 | 0.03 | 0.278
13 | B13 | 2 | 2.4 | 0.65 | –
14 | B14 | 24 | 10.6 | 0.17 | –
15 | B15 | 71 | 95.6 | 0.66 | –
16 | B16 | 15 | 10.3 | 0.12 | –
17 | B17 | 42 | 33.4 | 0.07 | –
18 | B18 | 35 | 5.3 | 0.03 | 0.625
19 | B19 | 50 | 42.7 | 0.03 | –
20 | B20 | 12 | 2.4 | 0.02 | 0.47
21 | B21 | 66 | 85.1 | 0.28 | –
22 | B22 | 54 | 14.2 | 0.54 | –
23 | B23 | 3 | < 5 | 0.02 | –
24 | B24 | 70 | 96.3 | 0.02 | 0.091
25 | B25 | 7 | 12.7 | 0.02 | –
26 | B26 | 0 | 2.3 | 0.03 | 0.403
27 | B27 | 28 | 17.2 | 0.04 | –
